Data reported in PMC3129650 (Journal of immunology (Baltimore, Md. : 1950), 2011).

Target: T1, Native purified human beta2-glycoprotein I (β2GPI) (human, UniProt P02749 20-345)
T1 sequence (looked up): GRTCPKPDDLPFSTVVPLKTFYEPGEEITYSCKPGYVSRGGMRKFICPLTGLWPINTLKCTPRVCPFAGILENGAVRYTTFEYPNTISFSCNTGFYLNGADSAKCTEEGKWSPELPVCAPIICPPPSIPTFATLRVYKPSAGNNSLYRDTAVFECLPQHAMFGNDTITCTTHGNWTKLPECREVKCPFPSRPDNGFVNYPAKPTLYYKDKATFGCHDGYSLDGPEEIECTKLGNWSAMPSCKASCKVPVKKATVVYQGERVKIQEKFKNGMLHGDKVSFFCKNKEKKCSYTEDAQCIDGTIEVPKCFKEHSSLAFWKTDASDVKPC
Assay: ELISA

B1: MBP-Ro60 aa 82–244 (domain or fragment)
chain: not shown
modifications: biotin (Sulfo-NHS-Biotin)
binding result: binds
